The supplement of paper PMC10567573
± gives the standard deviation.

Experiment: protein stability index of a GFP-peptide fusion (GPS, HEK-293T) (PSI 1-6); higher = more stable
Details: c terminus: a fixed tail appended
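Further: 24-mer peptide tiles fused after GFP, lentivirally expressed, FACS-sorted into six equal bins by GFP/DsRed ratio, decoded by Illumina sequencing, PSI is the read-weighted mean bin number.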

Sequence | protein stability index (treatment: DMSO) | protein stability index (treatment: MLN4924 1 uM, 8 h)
GARCATWFQDPTRFTGTMDAFVKI [SLC25A39] | 2.36 ± 0.5 | 2.61 ± 0.54
HNTVKLGAFQAQEKELVFDIDMTD [PRIM1] | 4.22 ± 0.19 | 4.52 ± 0.28
WPRNPPSRLLGAAAGQRSRPSTYY [DNAJC4] | 3.24 ± 0.25 | 3.67 ± 0.4
RTSSGNVWVTHEEMETLETSTKTD [PPFIA4] | 5.24 ± 0.35 | 4.99 ± 0.06
KYLTYDQLRKQKKKTGKSSTTALG [ELOA2] | 3.35 ± 0.083 | 3.79 ± 0.34
SIHCLGPIKLELLEPKANLQAALQ [VPS39] | 2.61 ± 0.34 | 2.45 ± 0.36
RLKLMQQNPAGELEGFQAQGHPPS [ATE1] | 4.29 ± 0.18 | 4.31 ± 0.12
AANKAVKCAEVIIPLLSSVNVSDR [ANKRD44] | 2.9 ± 0.27 | 2.98 ± 0.23
IYGRSQNPVQPIGPQTPKACDSKL [MMP1] | 4.15 ± 0.17 | 4.08 ± 0.12
SPAKASQASKLRASKEEKEDWLSH [FBF1] | 4.92 ± 0.37 | 4.92 ± 0.3
CMVGYDMGATRCDFTLSKTNMARI [CPXM2] | 2.24 ± 0.6 | 2.1 ± 0.22
QGLFFDMEAYLPKKNGLYLSLVLG [TMEM120A] | 2.67 ± 0.42 | 2.62 ± 0.23
ERYFIPVSCFLTFNIFDWLGRSLT [SLC29A1] | 2.77 ± 0.26 | 3.08 ± 0.46
QSVENCPEDLAQLEELIDMAVLEE [RPAIN] | 5.27 ± 0.15 | 5.27 ± 0.21
VAVLKGEQEKEAQHKDQTAALPLA [MAP2] | 5.28 ± 0.17 | 5.09 ± 0.27
LKLLDELPIAKVMKDYLKHKFDDI [ASB7] | 2.04 ± 0.3 | 2.14 ± 0.28
LKKGESECQYYIDKLEYLDEKQRD [NET1] | 4.55 ± 0.15 | 4.5 ± 0.32
EPSSSKDSDENSKPSVDTEGPALV [MIA2] | 5.53 ± 0.45 | 5.51 ± 0.25
EHIYDLRSLENYHFVDEHGKDQGI [CLINT1] | 4.1 ± 0.25 | 4.08 ± 0.1
VTETEETQEKKAESKEPIEEEPTG [SDE2] | 5.68 ± 0.19 | 5.85 ± 0.11
KLDKKLKKMEQNKTAATRYRQKKR [ATF4] | 4.48 ± 0.16 | 4.42 ± 0.23
QHSVPLQLELRAGAERLDALLADE [TRADD] | 4.63 ± 0.31 | 4.62 ± 0.47
ALSSPRSRKNATQPPNAEEESGSS [INTS3] | 5.24 ± 0.31 | 5.38 ± 0.24

Sequence | protein stability index (treatment: DMSO) | protein stability index (treatment: MLN4924 1 uM, 8 h)
VEKLLREEAEGARWTSYRFSRVCR [TRIM35] | 2.89 ± 0.28 | 3.22 ± 0.2
TVDIQNPDITSSRYRGLPAPGPSP [WAS] | 4.49 ± 0.24 | 4.7 ± 0.18
DYSHRQKEQDVEKELRDGGEQDTW [NFE2L1] | 5.63 ± 0.5 | 5.46 ± 0.44
ERYEIDSLIGKGSFGQVVKAYDHQ [DYRK1B] | 3.92 ± 0.21 | 4.02 ± 0.17
KQQREKTRWLNSGRGDEASEEGQN [ADD1] | 5.54 ± 0.16 | 5.48 ± 0.26
RRHPGLGKAFPSGCSAVSEPASES [TRAF3IP2] | 4.31 ± 0.18 | 4.3 ± 0.41
SILTDNPTWIIDPIDGTTNFVHRF [IMPA1] | 2.19 ± 0.26 | 2.12 ± 0.27
KSYIFEGALGMSNRDSYFYAAIVA [VMA21] | 2.96 ± 0.66 | 2.6 ± 0.46
RAMRYYYKREILERVDGRRLVYKF [ELF3] | 2.49 ± 0.15 | 2.63 ± 0.41
WGPSGQLMGEIAKATFMYEQFPEL [CLINT1] | 1.97 ± 0.38 | 2.06 ± 0.23
INYLGAESLRPLVQTPPGGSEVVP [IKZF1] | 4.07 ± 0.2 | 3.88 ± 0.28
PLTSTQGLEHAAAGGSSGTTARER [FBF1] | 5.36 ± 0.24 | 5.33 ± 0.3
PSLSPGAFSYSSSSRFSSSRLLGS [PRPH] | 3.29 ± 0.23 | 3.28 ± 0.16
YKPEQPLVRLRGGAYIGEGRVEVL [LOXL2] | 3.12 ± 0.16 | 2.97 ± 0.47
HQRKYTQSFCGENIMMPMGGMMPP [ZNF207] | 2.34 ± 0.15 | 2.49 ± 0.16
DLRSGTLYSLTLYGLRGPHKADSI [TNXB] | 2.16 ± 0.48 | 1.95 ± 0.27
VDGRATQKLIVNLKPEKSYSFVLT [PTPRD] | 2.4 ± 0.51 | 2.37 ± 0.66
ACGGHVELAALLIERGASLEEVND [ANKRD17] | 3.91 ± 0.29 | 3.73 ± 0.22
PPLLGTFPRDHTSLALVQNGDVSA [ANKRD40] | 4.57 ± 0.21 | 4.4 ± 0.41
DSLHPRPPYLPLAVPEDLADRLVR [FUT8] | 4.14 ± 0.13 | 4.06 ± 0.14
KFSHSGRYMLTRDYLTVKVWDLNM [PPP2R2C] | 2.35 ± 0.23 | 2.33 ± 0.31
SVSLQINCQSVAQMNLLQKYSLLK [DLC1] | 2.2 ± 0.12 | 2.13 ± 0.22
NAEMVQQTTYLEDRPMFMLQCAME [LOXL2] | 3.11 ± 0.25 | 3 ± 0.1

Sequence | protein stability index (treatment: DMSO) | protein stability index (treatment: MLN4924 1 uM, 8 h)
SEAAIGGAMLGQTTSEEAVGGATP [HDAC6] | 5.31 ± 0.26 | 5.4 ± 0.17
QTNSETAVVALTQDQPSEAATGGA [HDAC6] | 5.31 ± 0.2 | 5.42 ± 0.062
KQECLITTFQDVYFVSESFEDAKE [TPH1] | 4.08 ± 0.73 | 4.45 ± 0.36
LWSDPMAQEGCKANTIRGGGCYFG [PPEF2] | 2.68 ± 0.73 | 2.5 ± 0.44
EFPADISSITEAVPSESEPPALQN [NFE2L1] | 5.31 ± 0.36 | 5.44 ± 0.22
PGSMSEVQELCKQLHAKIDAAEEE [TNNI2] | 5.38 ± 0.27 | 5.36 ± 0.11
ARGIAGEKFDIVKKWGINTYKCTK [ARFIP2] | 3.3 ± 0.35 | 3.27 ± 0.077
RVILEIDNARLAVDDFRLKYENEL [KRT13] | 2.4 ± 0.25 | 2.66 ± 0.45
HTSTARLLLHRGAGKEAMTSDGYT [RIPK4] | 3.61 ± 0.22 | 3.75 ± 0.29
GVYSMPAGTKVFEVPEMSPVTCCD [TLE6] | 3.84 ± 0.33 | 3.45 ± 0.24
YPPFWDEDQHRLYQQIKAGAYDFP [CAMK2D] | 2.56 ± 0.21 | 2.64 ± 0.25
KDRECQSQSLALKEQNNLKQLEFG [ZNF8] | 4.56 ± 0.3 | 4.78 ± 0.63
EAVESRGGVPGGCVLVPRADLRLG [SMAD6] | 4.07 ± 0.47 | 4.34 ± 0.17
CVPAHPPPCAWACPVPAHRRGSWR [CTBP1-DT] | 2.56 ± 0.19 | 2.77 ± 0.18
LNQQVVSSSEQLQCCQTEIIELRR [KRT36] | 4.29 ± 0.22 | 4.04 ± 0.27
SMQEDEQSGRDLQQYQSQAKQLFR [SEC22B] | 4.22 ± 0.17 | 4.35 ± 0.19
VPLARSLQISEELLSRNQLSTAAS [LCOR] | 3.67 ± 0.097 | 3.73 ± 0.076
NACATKEQKNHTFPRLNRNKYMVT [PLD5] | 3.63 ± 0.3 | 3.77 ± 0.41
DRAAKRLSLESEGAGEGAAASPEL [TPPP] | 5.38 ± 0.14 | 5.32 ± 0.37
HAGEHLLLGATKRSMVFKDVLLLG [HNF4A] | 2.26 ± 0.33 | 2.35 ± 0.4
GEVLKSSTFSSGPSDKMKWCLRVN [SPOPL] | 2.46 ± 0.26 | 2.43 ± 0.23
SVGHNNLIPLANTGIVNHTHSRMG [CARM1] | 3.47 ± 0.32 | 3.66 ± 0.2
TSSNLGSQYQCENGVSGPSQDLLP [TBX5] | 4.78 ± 0.16 | 4.6 ± 0.15

Sequence | protein stability index (treatment: DMSO) | protein stability index (treatment: MLN4924 1 uM, 8 h)
ERQDMYQCLVEGCTEKFKTSRDRK [ZNF511] | 4.09 ± 0.48 | 4.29 ± 0.25
RVLFIKDVIGDEICCWSFYGQGRK [KCTD10] | 1.89 ± 0.51 | 2.38 ± 0.23
ECTQMDHLGCMHYTVRAPVGVAGL [ALDH8A1] | 2.51 ± 0.37 | 2.68 ± 0.36
RSEALAVDGAGKPGAEEAQDPEGK [CHGA] | 5.61 ± 0.15 | 5.561 ± 0.045
LDHDIFQLIDPDENKENEAFEFKK [CDC25A] | 4.07 ± 0.083 | 4.13 ± 0.52
CDALRTLAEARRLFPGRVSVDLML [RSAD1] | 2.05 ± 0.33 | 2.03 ± 0.37
QCSMPLHVAPLLAAAGLHASPMSA [NR2F2] | 2.58 ± 0.26 | 2.63 ± 0.24
EDFTNTLRELGHAEHEITELTATF [PKD2L1] | 4.43 ± 0.34 | 4.22 ± 0.091
SQVRALDRFQVPTTEVNAWLVHRD [NFE2L1] | 3.37 ± 0.47 | 3.33 ± 0.48
PHTPGKPTSSCTSRSAPPGLQAPP [FOXJ1] | 4.42 ± 0.19 | 4.86 ± 0.18
NPWNWGKLAEAYLNLGPALSAALA [C8orf76] | 2.57 ± 0.26 | 2.44 ± 0.15
LFLSHVLALGLGIYIGKRLSTPSA [BNIP3L] | 2.86 ± 0.86 | 2.94 ± 0.55
DYDDGFSMKHTATARFQRNHRLIS [SMARCE1] | 2.99 ± 0.1 | 3.19 ± 0.31
IGRGTKVILHLKEDQTEYLEERRV [HSP90AB1] | 3.34 ± 0.16 | 3.57 ± 0.29
ARQETKEMARKVIEHCSNFKEENM [ZER1] | 4.74 ± 0.23 | 4.57 ± 0.45
LLPKGSKEEQRDYVFYLAVGNYRL [FIS1] | 2.63 ± 0.56 | 2.15 ± 0.063
TLCAVLERDTLSIRESRLFGAVVR [BTBD1] | 2.4 ± 0.38 | 2.22 ± 0.56
EFARKGSCFLINTADRIIRVYDGR [RBBP5] | 2.23 ± 0.67 | 2.24 ± 0.26
FSQETVMKFVPRYSLVLELSDSGA [APMAP] | 2.75 ± 0.71 | 2.09 ± 0.27
SLDFTKKILHTAWHPAENIIAIAA [PPP2R2C] | 2.58 ± 0.59 | 2.29 ± 0.31
